B1: CSF-1: growth factor chemotactic for macrophages (protein, UniProt P09603 33-554, looked up)
Macrophage colony-stimulating …: EEVSEYCSHMIGSGHLQSLQRLIDSQMETSCQITFEFVDQEQLKDPVCYLKKAFLLVQDIMEDTMRFRDNTPNAIAIVQLQELSLRLKSCFTKDYEEHDKACVRTFYETPLQLLEKVKNVFNETKNLLDKDWNIFSKNCNNSFAECSSQDVVTKPDCNCLYPKAIPSSDPASVSPHQPLAPSMAPVAGLTWEDSEGTEGSSLLPGEQPLHTVDPGSAKQRPPRSTCQSFEPPETPVVKDSTIGGSPQPRPSVGAFNPGMEDILDSAMGTNWVPEEASGEASEIPVPQGTELSPSRPGGGSMQTEPARPSNFLSASSPLPASAKGQQPADVTGTALPRVGPVRPTGQDWNHTPQKTDHPSALLRDPPEPGSPRISSLRPQGLSNPSTLSAQPQLSRSHSSGSVLPLGELEGRRSTRDRRSPAEPEGGPASEGAARPLPRFNSVPLTDTGHERQSEGSFSPQLQESVFHLLVPSVILVLLAVGGLLFYRWRRRSHQEPQRADSPLEQPEGSPLTQDDRQVELPV
B2: EGF: epidermal growth factor, chemotactic factor used in collection needles (protein, UniProt P01133 23-1207, looked up)
Pro-epidermal growth factor: PQHWSCPEGTLAGNGNSTCVGPAPFLIFSHGNSIFRIDTEGTNYEQLVVDAGVSVIMDFHYNEKRIYWVDLERQLLQRVFLNGSRQERVCNIEKNVSGMAINWINEEVIWSNQQEGIITVTDMKGNNSHILLSALKYPANVAVDPVERFIFWSSEVAGSLYRADLDGVGVKALLETSEKITAVSLDVLDKRLFWIQYNREGSNSLICSCDYDGGSVHISKHPTQHNLFAMSLFGDRIFYSTWKMKTIWIANKHTGKDMVRINLHSSFVPLGELKVVHPLAQPKAEDDTWEPEQKLCKLRKGNCSSTVCGQDLQSHLCMCAEGYALSRDRKYCEDVNECAFWNHGCTLGCKNTPGSYYCTCPVGFVLLPDGKRCHQLVSCPRNVSECSHDCVLTSEGPLCFCPEGSVLERDGKTCSGCSSPDNGGCSQLCVPLSPVSWECDCFPGYDLQLDEKSCAASGPQPFLLFANSQDIRHMHFDGTDYGTLLSQQMGMVYALDHDPVENKIYFAHTALKWIERANMDGSQRERLIEEGVDVPEGLAVDWIGRRFYWTDRGKSLIGRSDLNGKRSKIITKENISQPRGIAVHPMAKRLFWTDTGINPRIESSSLQGLGRLVIASSDLIWPSGITIDFLTDKLYWCDAKQSVIEMANLDGSKRRRLTQNDVGHPFAVAVFEDYVWFSDWAMPSVMRVNKRTGKDRVRLQGSMLKPSSLVVVHPLAKPGADPCLYQNGGCEHICKKRLGTAWCSCREGFMKASDGKTCLALDGHQLLAGGEVDLKNQVTPLDILSKTRVSEDNITESQHMLVAEIMVSDQDDCAPVGCSMYARCISEGEDATCQCLKGFAGDGKLCSDIDECEMGVPVCPPASSKCINTEGGYVCRCSEGYQGDGIHCLDIDECQLGEHSCGENASCTNTEGGYTCMCAGRLSEPGLICPDSTPPPHLREDDHHYSVRNSDSECPLSHDGYCLHDGVCMYIEALDKYACNCVVGYIGERCQYRDLKWWELRHAGHGQQQKVIVVAVCVVVLVMLLLLSLWGAHYYRTQKLLSKNPKNPYEESSRDVRSRRPADTEDGMSSCPQPWFVVIKEHQDLKNGGQPVAGEDGQAADGSMQPTSWRQEPQLCGMGTEQGCWIPVSSDKGSCPQVMERSFHMPSYGTQTLEGGVEKPHSLLSANPLWQQRALDPPHQMELTQ
modifications: Pro-epidermal growth factor
notes: epidermal growth factor, chemotactic factor used in collection needles

Experiments:
[1] = tested on: tumor cells and macrophages of primary mammary tumors; test: in vivo invasion assay, needles with matrigel and growth factors in primary mammary tumor; set-up: species or system rats and mice; settings: factor in matrigel-filled needle placed in primary tumor
Description: (§1) Therefore, an in vivo invasion assay was created in which three needles (microneedles ˜100 um in diameter) containing matrigel and various growth factors are placed independently with microscopic precision, using a specially designed micromanipulator guided device, into the primary tumor for chemotaxis-based cell collection in vivo [3]. One needle contains control conditions (usually no ligand or an inhibitor), and the other two are identical. […] Fetal serum was also sufficient but this required signaling by the EGF receptor again implicating the EGF receptor. Furthermore, CSF-1 was also sufficient for cell collection. […] Migration and collection was directly correlated with macrophage density in the mammary gland, stage of progression to malignancy (only background levels of cells, <200 cells, were collected from normal mammary glands and adenoma stage tumors compared with carcinoma stage tumors, ˜1000 cells) and the presence of CSF1 in the tumor was required for cell collection as shown using mouse models with either decreased (op/op) or increased (tet on CSF-1) CSF-1 expression that regulates macrophage recruitment to the mammary gland and metastasis. […] Furthermore, the motility of tumor cells and intravasation occurs preferentially in association with macrophages. […]

[2] = tested on: Human lung tumors heterotransplanted into nude mice; test: in vivo invasion assay, chemotaxis-based cell collection into needles, human lung tumor heterotransplants; settings: needles containing 25 nM EGF; first mouse to mouse transplant
Description: as §1

[3] = tested on: MDA-MB-231 derived mammary tumors; test: in vivo invasion assay, MDA-MB-231 derived mammary tumors; set-up: species or system human tumor xenograft in SCID mice tumor xenograft in SCID mice; settings: MDA-MB-231 injected into mammary fat pad of mice; FIG. 1C
Description: Therefore, an in vivo invasion assay was created in which three needles (microneedles ˜100 um in diameter) containing matrigel and various growth factors are placed independently with microscopic precision, using a specially designed micromanipulator guided device, into the primary tumor for chemotaxis-based cell collection in vivo [3]. One needle contains control conditions (usually no ligand or an inhibitor), and the other two are identical. […] Fetal serum was also sufficient but this required signaling by the EGF receptor again implicating the EGF receptor. Furthermore, CSF-1 was also sufficient for cell collection. […]
Mammary tumors derived by injecting the human cell line MDA-MB-231 into a mammary fat pad of mice were used in the in vivo invasion assay. […] The involvement of EGF and CSF1 in carcinoma cell invasion has been analyzed from primary breast tumors derived from the injection of MDA-MB-231 cells into the mammary fat pads of SCID mice. […]

Molecule | chemotaxis to indwelling needles / cell collection [1] | fold more cells collected in needles as compared to needles with buffer alone [2] | fold more cells collected in response to EGF [3]
B1 | sufficient |  | 
B2 | stimulated collection | 2.5 fold | 2.5 fold

Reference: patent US20120322685A1, “DEVICE FOR COLLECTING AND ANALYZING MIGRATORY TUMOR CELLS” (priority 2010, published 2012)
